Results reported in publication PMC5923425, “Structural analysis of human ARS2 as a platform for co-transcriptional RNA sorting” (Nature Communications, 2018).

B1: EGFP–ARS2 wt [human] / hMTR4 [human (endogenous in HEK 293T/17)] (parent complex)
chain 1: MGDSDDEYDRRRRDKFRRERSDYDRSRERDERRRGDDWNDREWDRGRERRSRGEYRDYDRNRRERFSPPRHELSPPQKRMRRDWDEHSSDPYHSGYEMPYAGGGGGPTYGPPQPWGHPDVHIMQHHVLPIQARLGSIAEIDLGVPPPVMKTFKEFLLSLDDSVDETEAVKRYNDYKLDFRRQQMQDFFLAHKDEEWFRSKYHPDEVGKRRQEARGALQNRLRVFLSLMETGWFDNLLLDIDKADAIVKMLDAAVIKMEGGTENDLRILEQEEEEEQAGKPGEPSKKEEGRAGAGLGDGERKTNDKDEKKEDGKQAENDSSNDDKTKKSEGDGDKEEKKEDSEKEAKKSSKKRNRKHSGDDSFDEGSVSESESESESGQAEEEKEEAEALKEKEKPKEEEWEKPKDAAGLECKPRPLHKTCSLFMRNIAPNISRAEIISLCKRYPGFMRVALSEPQPERRFFRRGWVTFDRSVNIKEICWNLQNIRLRECELSPGVNRDLTRRVRNINGITQHKQIVRNDIKLAAKLIHTLDDRTQLWASEPGTPPLPTSLPSQNPILKNITDYLIEEVSAEEEELLGSSGGAPPEEPPKEGNPAEINVERDEKLIKVLDKLLLYLRIVHSLDYYNTCEYPNEDEMPNRCGIIHVRGPMPPNRISHGEVLEWQKTFEEKLTPLLSVRESLSEEEAQKMGRKDPEQEVEKFVTSNTQELGKDKWLCPLSGKKFKGPEFVRKHIFNKHAEKIEEVKKEVAFFNNFLTDAKRPALPEIKPAQPPGPAQSLTPGLPYPHQTPQGLMPYGQPRPPILGYGAGAVRPAVPTGGPPYPHAPYGAGRGNYDAFRGQGGYPGKPRNRMVRGDPRAIVEYRDLDAPDDVDFF
chain 2: MADAFGDELFSVFEGDSTTAAGTKKDKEKDKGKWKGPPGSADKAGKRFDGKLQSESTNNGKNKRDVDFEGTDEPIFGKKPRIEESITEDLSLADLMPRVKVQSVETVEGCTHEVALPAEEDYLPLKPRVGKAAKEYPFILDAFQREAIQCVDNNQSVLVSAHTSAGKTVCAEYAIALALREKQRVIFTSPIKALSNQKYREMYEEFQDVGLMTGDVTINPTASCLVMTTEILRSMLYRGSEVMREVAWVIFDEIHYMRDSERGVVWEETIILLPDNVHYVFLSATIPNARQFAEWICHLHKQPCHVIYTDYRPTPLQHYIFPAGGDGLHLVVDENGDFREDNFNTAMQVLRDAGDLAKGDQKGRKGGTKGPSNVFKIVKMIMERNFQPVIIFSFSKKDCEAYALQMTKLDFNTDEEKKMVEEVFSNAIDCLSDEDKKLPQVEHVLPLLKRGIGIHHGGLLPILKETIEILFSEGLIKALFATETFAMGINMPARTVLFTNARKFDGKDFRWISSGEYIQMSGRAGRRGMDDRGIVILMVDEKMSPTIGKQLLKGSADPLNSAFHLTYNMVLNLLRVEEINPEYMLEKSFYQFQHYRAIPGVVEKVKNSEEQYNKIVIPNEESVVIYYKIRQQLAKLGKEIEEYIHKPKYCLPFLQPGRLVKVKNEGDDFGWGVVVNFSKKSNVKPNSGELDPLYVVEVLLRCSKESLKNSATEAAKPAKPDEKGEMQVVPVLVHLLSAISSVRLYIPKDLRPVDNRQSVLKSIQEVQKRFPDGIPLLDPIDDMGIQDQGLKKVIQKVEAFEHRMYSHPLHNDPNLETVYTLCEKKAQIAIDIKSAKRELKKARTVLQMDELKCRKRVLRRLGFATSSDVIEMKGRVACEISSADELLLTEMMFNGLFNDLSAEQATALLSCFVFQENSSEMPKLTEQLAGPLRQMQECAKRIAKVSAEAKLEIDEETYLSSFKPHLMDVVYTWATGATFAHICKMTDVFEGSIIRCMRRLEELLRQMCQAAKAIGNTELENKFAEGITKIKRDIVFAASLYL
B2: EGFP–ARS2 wt [human] / ZFC3H1 [human (endogenous in HEK 293T/17)] (parent complex)
chain 1: B1 chain 1
chain 2: MATADTPAPASSGLSPKEEGELEDGEISDDDNNSQIRSRSSSSSSGGGLLPYPRRRPPHSARGGGSGGGGGSSSSSSSSQQQLRNFSRSRHASERGHLRGPSSYRPKEPFRSHPPSVRMPSSSLSESSPRPSFWERSHLALDRFRFRGRPYRGGSRWSRGRGVGERGGKPGCRPPLGGGAGSGFSSSQSWREPSPPRKSSKSFGRSPSRKQNYSSKNENCVEETFEDLLLKYKQIQLELECINKDEKLALSSKEENVQEDPKTLNFEDQTSTDNVSITKDSSKEVAPEEKTQVKTFQAFELKPLRQKLTLPGDKNRLKKVKDGAKPLSLKSDTTDSSQGLQDKEQNLTRRISTSDILSEKKLGEDEEELSELQLRLLALQSASKKWQQKEQQVMKESKEKLTKTKTVQQKVKTSTKTHSAKKVSTTAKQALRKQQTKAWKKLQQQKEQERQKEEDQRKQAEEEERRKREEEIRKIRDLSNQEEQYNRFMKLVGGKRRSRSKSSDPDLRRSLDKQPTDSGGGIYQYDNYEEVAMDTDSETSSPAPSPVQPPFFSECSLGYFSPAPSLSLPPPPQVSSLPPLSQPYVEGLCVSLEPLPPLPPLPPLPPEDPEQPPKPPFADEEEEEEMLLREELLKSLANKRAFKPEETSSNSDPPSPPVLNNSHPVPRSNLSIVSINTVSQPRIQNPKFHRGPRLPRTVISLPKHKSVVVTLNDSDDSESDGEASKSTNSVFGGLESMIKEARRTAEQASKPKVPPKSEKENDPLRTPEALPEEKKIEYRLLKEEIANREKQRLIKSDQLKTSSSSPANSDVEIDGIGRIAMVTKQVTDAESKLKKHRILLMKDESVLKNLVQQEAKKKESVRNAEAKITKLTEQLQATEKILNVNRMFLKKLQEQIHRVQQRVTIKKALTLKYGEELARAKAVASKEIGKRKLEQDRFGPNKMMRLDSSPVSSPRKHSAELIAMEKRRLQKLEYEYALKIQKLKEARALKAKEQQNISPVVEEEPEFSLPQPSLHDLTQDKLTLDTEENDVDDEILSGSSRERRRSFLESNYFTKPNLKHTDTANKECINKLNKNTVEKPELFLGLKIGELQKLYSKADSLKQLILKTTTGITEKVLHGQEISVDVDFVTAQSKTMEVKPCPFRPYHSPLLVFKSYRFSPYYRTKEKLPLSSVSYSNMIEPDQCFCRFDLTGTCNDDDCQWQHIQDYTLSRKQLFQDILSYNLSLIGCAETSTNEEITASAEKYVEKLFGVNKDRMSMDQMAVLLVSNINESKGHTPPFTTYKDKRKWKPKFWRKPISDNSFSSDEEQSTGPIKYAFQPENQINVPALDTVVTPDDVRYFTNETDDIANLEASVLENPSHVQLWLKLAYKYLNQNEGECSESLDSALNVLARALENNKDNPEIWCHYLRLFSKRGTKDEVQEMCETAVEYAPDYQSFWTFLHLESTFEEKDYVCERMLEFLMGAAKQETSNILSFQLLEALLFRVQLHIFTGRCQSALAILQNALKSANDGIVAEYLKTSDRCLAWLAYIHLIEFNILPSKFYDPSNDNPSRIVNTESFVMPWQAVQDVKTNPDMLLAVFEDAVKACTDESLAVEERIEACLPLYTNMIALHQLLERYEAAMELCKSLLESCPINCQLLEALVALYLQTNQHDKARAVWLTAFEKNPQNAEVFYHMCKFFILQNRGDNLLPFLRKFIASFFKPGFEKYNNLDLFRYLLNIPGPIDIPSRLCKGNFDDDMFNHQVPYLWLIYCLCHPLQSSIKETVEAYEAALGVAMRCDIVQKIWMDYLVFANNRAAGSRNKVQEFKFFTDLVNRCLVTVPARYPIPFSSADYWSNYEFHNRVIFFYLSCVPKTQHSKTLERFCSVMPANSGLALRLLQHEWEESNVQILKLQAKMFTYNIPTCLATWKIAIAAEIVLKGQREVHRLYQRALQKLPLCASLWKDQLLFEASEGGKTDNLRKLVSKCQEIGVSLNELLNLNSNKTESKNH
B3: EGFP–ARS2 wt [human] / RBM7 [human (endogenous in HEK 293T/17)] (parent complex)
chain 1: B1 chain 1
chain 2: MGAAAAEADRTLFVGNLETKVTEELLFELFHQAGPVIKVKIPKDKDGKPKQFAFVNFKHEVSVPYAMNLLNGIKLYGRPIKIQFRSGSSHAPQDVSLSYPQHHVGNSSPTSTSPSRYERTMDNMTSSAQIIQRSFSSPENFQRQAVMNSALRQMSYGGKFGSSPLDQSGFSPSVQSHSHSFNQSSSSQWRQGTPSSQRKVRMNSYPYLADRHYSREQRYTDHGSDHHYRGKRDDFFYEDRNHDDWSHDYDNRRDSSRDGKWRSSRH
B4: EGFP–ARS2 wt [human] / NCBP3 (endogenous) [human (endogenous in HEK 293T/17)] (parent complex)
chain 1: B1 chain 1
chain 2: MAAVRGLRVSVKAEAPAGPALGLPSPEAESGVDRGEPEPMEVEEGELEIVPVRRSLKELIPDTSRRYENKAGSFITGIDVTSKEAIEKKEQRAKRFHFRSEVNLAQRNVALDRDMMKKAIPKVRLETIYICGVDEMSTQDVFSYFKEYPPAHIEWLDDTSCNVVWLDEMTATRALINMSSLPAQDKIRSRDASEDKSAEKRKKDKQEDSSDDDEAEEGEVEDENSSDVELDTLSQVEEESLLRNDLRPANKLAKGNRLFMRFATKDDKKELGAARRSQYYMKYGNPNYGGMKGILSNSWKRRYHSRRIQRDVIKKRALIGDDVGLTSYKHRHSGLVNVPEEPIEEEEEEEEEEEEEEEEDQDMDADDRVVVEYHEELPALKQPRERSASRRSSASSSDSDEMDYDLELKMISTPSPKKSMKMTMYADEVESQLKNIRNSMRADSVSSSNIKNRIGNKLPPEKFADVRHLLDEKRQHSRPRPPVSSTKSDIRQRLGKRPHSPEKAFSSNPVVRREPSSDVHSRLGVPRQDSKGLYADTREKKSGNLWTRLGSAPKTKEKNTKKVDHRAPGAEEDDSELQRAWGALIKEKEQSRQKKSRLDNLPSLQIEVSRESSSGSEAES
B5: EGFP–ARS2 wt [human] / ZCCHC8 [human (endogenous in HEK 293T/17)] (parent complex)
chain 1: B1 chain 1
chain 2: MAAEVYFGDLELFEPFDHPEESIPKPVHTRFKDDDGDEEDENGVGDAELRERLRQCEETIEQLRAENQELKRKLNILTRPSGILVNDTKLDGPILQILFMNNAISKQYHQEIEEFVSNLVKRFEEQQKNDVEKTSFNLLPQPSSIVLEEDHKVEESCAIKNNKEAFSVVGSVLYFTNFCLDKLGQPLLNENPQLSEGWEIPKYHQVFSHIVSLEGQEIQVKAKRPKPHCFNCGSEEHQMKDCPMPRNAARISEKRKEYMDACGEANNQNFQQRYHAEEVEERFGRFKPGVISEELQDALGVTDKSLPPFIYRMRQLGYPPGWLKEAELENSGLALYDGKDGTDGETEVGEIQQNKSVTYDLSKLVNYPGFNISTPRGIPDEWRIFGSIPMQACQQKDVFANYLTSNFQAPGVKSGNKRSSSHSSPGSPKKQKNESNSAGSPADMELDSDMEVPHGSQSSESFQFQPPLPPDTPPLPRGTPPPVFTPPLPKGTPPLTPSDSPQTRTASGAVDEDALTLEELEEQQRRIWAALEQAESVNSDSDVPVDTPLTGNSVASSPCPNELDLPVPEGKTSEKQTLDEPEVPEIFTKKSEAGHASSPDSEVTSLCQKEKAELAPVNTEGALLDNGSVVPNCDISNGGSQKLFPADTSPSTATKIHSPIPDMSKFATGITPFEFENMAESTGMYLRIRSLLKNSPRNQQKNKKASE

Variants of: B1
Experiment: EGFP pull down, LC–MS/MS (AP–MS, TMT labelled); HEK 293T/17 cells; three independent affinity purifications per bait; read off a plot

Row | screen value | Variant
1 | ~-2.7 | chain 1 K719A, chain 1 K722A, chain 1 K734A

Variants of: B2
Experiment: as above

Row | screen value | Variant
2 | ~-2.8 | chain 1 K719A, chain 1 K722A, chain 1 K734A

Variants of: B3
Experiment: as above

Row | screen value | Variant
3 | ~-1.8 | chain 1 K719A, chain 1 K722A, chain 1 K734A

Variants of: B4
Experiment: as above

Row | screen value | Variant
4 | ~-3.1 | chain 1 K719A, chain 1 K722A, chain 1 K734A

Variants of: B5
Experiment: as above

Row | screen value | Variant
5 | ~-1.7 | chain 1 K719A, chain 1 K722A, chain 1 K734A
